Where two headings read alike, the source gives them in different places.
Key:
[1] = target: IgG1-7D8-K409A (human) [IgG part: P01857]; assay: cell-based or functional assay
[2] = target: IgG1-7D8-K409G (human) [IgG part: P01857]; assay: cell-based or functional assay
[3] = target: IgG1-7D8-K409H (human) [IgG part: P01857]; assay: cell-based or functional assay
[4] = target: IgG1-7D8-K409R (human) [IgG part: P01857]; assay: cell-based or functional assay
[5] = target: CD20 on Daudi and Raji cells (UniProt P11836)
[6] = target: CH2-CH3 construct G1-K370T (human); assay: native MS, monomer-dimer equilibrium of CH2-CH3 fragment
[7] = target: CH2-CH3 construct G4-K370Q (human); assay: as above
[8] = target: CH2-CH3 construct G1 (human); assay: as above
[9] = target: CH2-CH3 construct G4-S364D (human); assay: as above
[10] = target: CH2-CH3 construct G4-L351K (human); assay: as above
[11] = target: CH2-CH3 construct G4-K370E (human); assay: as above
[12] = target: CH2-CH3 construct G4 (human); assay: as above
[13] = target: CD20 on Daudi and Raji cells (UniProt P11836); remark: listed apart in the source
[14] = target: CH2-CH3 construct G4-R409T (human); assay: native MS, monomer-dimer equilibrium of CH2-CH3 fragment
[15] = target: CH2-CH3 construct G1-K409R (human); assay: as above
[16] = target: CH2-CH3 construct G1-K409R (human); assay: native MS, monomer-dimer equilibrium of CH2-CH3 fragment, homodimer
[17] = target: CH2-CH3 construct G4-R409L (human); assay: native MS, monomer-dimer equilibrium of CH2-CH3 fragment
[18] = target: CH2-CH3 construct G4-R409K (human); assay: as above
[19] = target: CH2-CH3 construct G4-F405A (human); assay: as above
[20] = target: CH2-CH3 construct G4-R409W (human); assay: as above
[21] = target: CH2-CH3 construct G4-R409M (human); assay: as above
[22] = target: CH2-CH3 construct G4-F405L (human); assay: as above
[23] = target: CH2-CH3 construct G4-R409A (human); assay: as above
[24] = target: recombinant extracellular domain of EGFR (UniProt P00533); assay: sandwich ELISA: EGFR extracellular domain coated, detection with anti-idiotype 2F2 SAB1.1
[25] = target: CH2-CH3 construct G1-T350I (human); assay: native MS, monomer-dimer equilibrium of CH2-CH3 fragment
[26] = target: CH2-CH3 construct G4-E357T (human); assay: as above

Bispecific binding (% relative to positive control) [1]	Bispecific binding (% relative to positive control) [2]	Bispecific binding (% relative to positive control) [3]	Bispecific binding (% relative to positive control) [4]	Substance	other results
42%	51%	56%	39%	IgG1-2F8-L368T (antibody)	–
–	–	–	–	IgG1-7D8-K409R (from UniProt P01857 1-330) (antibody)	EC50 (read off the curve) [5]: 0.4 µg/mL
–	–	–	–	CH2-CH3 construct G1-K370T	Kd [6]: 45 nM; fold-difference (against wild type CH2-CH3 fragment) [6]: 0.07 fold
49%	50%	54%	41%	IgG1-2F8-L368D (antibody)	–
47%	52%	54%	43%	IgG1-2F8-L368N (antibody)	–
–	–	–	–	CH2-CH3 construct G4-K370Q	Kd [7]: 11 nM; fold-difference (against wild type CH2-CH3 fragment) [7]: 4.3 fold
34%	51%	39%	45%	IgG1-2F8-F405S (antibody)	Fab-arm exchange compared to the positive control, 20° C., 200 min [1]: 90%; Fab-arm exchange efficiency compared to the positive control, 15° C., 200 min [1]: 65%
–	–	–	–	CH2-CH3 construct G1	Kd [8]: 3 nM; fold-difference (against wild type CH2-CH3 fragment) [8]: 1 fold
–	–	–	–	CH2-CH3 construct G4-S364D	Kd [9]: 47 nM; fold-difference (against wild type CH2-CH3 fragment) [9]: 1.02 fold
46%	53%	53%	44%	IgG1-2F8-L368G (antibody)	–
26%	25%	29%	21%	IgG1-2F8-L368H (antibody)	–
55%	64%	91%	52%	IgG1-2F8-L368R (antibody)	Fab-arm exchange efficiency compared to the positive control, 15° C., 200 min [3]: 100%
44%	41%	49%	49%	IgG1-2F8-Y407L (antibody)	–
40%	43%	46%	34%	IgG1-2F8-D399K (antibody)	–
32%	38%	42%	37%	IgG1-2F8-L368E (antibody)	–
–	–	–	–	CH2-CH3 construct G4-L351K	Kd [10]: 740 nM; fold-difference (against wild type CH2-CH3 fragment) [10]: 0.06 fold
47%	45%	52%	38%	IgG1-2F8-D399R (antibody)	Fab-arm exchange compared to the positive control, 20° C., 200 min [2]: 85%; Fab-arm exchange efficiency compared to the positive control, 15° C., 200 min [2]: 85%
–	–	–	–	CH2-CH3 construct G4-K370E	Kd [11]: 2 nM; fold-difference (against wild type CH2-CH3 fragment) [11]: 24 fold
–	–	–	–	CH2-CH3 construct G4	Kd [12]: 48 nM; fold-difference (against wild type CH2-CH3 fragment) [12]: 1 fold
4%	9%	44%	1%	IgG1-2F8-Y407Q (antibody)	–
39%	45%	53%	37%	IgG1-2F8-L368S (antibody)	–
–	–	–	–	IgG1-7D8 (from UniProt P01857 1-330) (antibody)	EC50 (read off the curve) [5]: 0.5 µg/mL; EC50 (read off the curve) [13]: 1 µg/mL
–	–	–	–	CH2-CH3 construct G4-R409T	Kd [14]: 720 nM; fold-difference (against wild type CH2-CH3 fragment) [14]: 0.07 fold

Bispecific binding (% relative to positive control) [1]	Bispecific binding (% relative to positive control) [2]	Bispecific binding (% relative to positive control) [3]	Bispecific binding (% relative to positive control) [4]	Substance	other results
13%	15%	15%	14%	IgG1-2F8-D399F (antibody)	–
–	–	–	–	CH2-CH3 construct G1-K409R	Kd [15]: 110 nM; fold-difference (against wild type CH2-CH3 fragment) [15]: 0.03 fold; Kd [16]: 110 nM
–	–	–	–	CH2-CH3 construct G4-R409L	Kd [17]: 15 nM; fold-difference (against wild type CH2-CH3 fragment) [17]: 3.2 fold
32%	49%	60%	39%	IgG1-2F8-F405I (antibody)	–
–	–	–	–	CH2-CH3 construct G4-R409K	Kd [18]: 8 nM; fold-difference (against wild type CH2-CH3 fragment) [18]: 6 fold
–	–	–	–	CH2-CH3 construct G4-F405A	Kd [19]: 19 µM; fold-difference (against wild type CH2-CH3 fragment) [19]: 0.0025 fold
–	–	–	–	CH2-CH3 construct G4-R409W	Kd [20]: 34 µM; fold-difference (against wild type CH2-CH3 fragment) [20]: 0.0014 fold
48%	53%	62%	47%	IgG1-2F8-Y407W (antibody)	–
12%	14%	19%	10%	IgG1-2F8-D399H (antibody)	–
–	–	–	–	CH2-CH3 construct G4-R409M	Kd [21]: 3 nM; fold-difference (against wild type CH2-CH3 fragment) [21]: 16 fold
33%	33%	37%	25%	IgG1-2F8-L368A (antibody)	–
–	–	–	–	CH2-CH3 construct G4-F405L	Kd [22]: 25 µM; fold-difference (against wild type CH2-CH3 fragment) [22]: 0.0019 fold
17%	20%	18%	16%	IgG1-2F8-F405W (antibody)	–
0%	0%	0%	0%	IgG1-2F8-D399Q (antibody)	–
42%	49%	51%	33%	IgG1-2F8-L368V (antibody)	–
–	–	–	–	CH2-CH3 construct G4-R409A	Kd [23]: 160 nM; fold-difference (against wild type CH2-CH3 fragment) [23]: 0.3 fold
56%	56%	60%	41%	IgG1-2F8-L368W (antibody)	–
36%	46%	43%	37%	IgG1-2F8-F405V (antibody)	–
–	–	–	–	bispecific antibody generated by 2-MEA-induced Fab-arm exchange between IgG1-2F8-F405L and IgG1-7D8-K409R (from UniProt P01857 1-330)	EC50 (read off the curve) [5]: 2 µg/mL; EC50 (read off the curve) [24]: 400 ng/mL
29%	48%	40%	47%	IgG1-2F8-F405K (antibody)	–
35%	47%	46%	42%	IgG1-2F8-F405T (antibody)	–
–	–	–	–	CH2-CH3 construct G1-T350I	Kd [25]: 7 nM; fold-difference (against wild type CH2-CH3 fragment) [25]: 0.4 fold
–	–	–	–	CH2-CH3 construct G4-E357T	Kd [26]: 41 µM; fold-difference (against wild type CH2-CH3 fragment) [26]: 0.0012 fold
